± gives the uncertainty stated by the source.
Assay: self-splicing fitness, log relative to wild type (ln ratio); higher = more splicing; Tetrahymena group I intron in knt gene, E. coli kanamycin selection, DiMSum; sequences stand for … in CUCUCU…GGAGGGAAAAGUUAUCAGGCAUGCACCUGGUAGCUAGUCUUUAAACCAAUAGAUUGCAUCGGUUUAAAAGGCAAGACCGUCAAAUUGCGGGAAAGGGGUCAACAGCCGUUCAGUACCAAGUCUCAGGGGAAACUUUGAGAUGGCCUUGCAAAGGGUAUGGUAAUAAGCUGACGGACAUGGUCCUAACCACGCAGCCAAGUCCUAAGUCAACAGAUCUUCUGUUGAUAUGGAUGCAGUUCACAGACUAAAUGUCGGUCGGGGAAGAUGUAUUCUUCUCAUAAGAUAUAGUCGGACCUCUCCUUAAUGGGAGCUAGCGGAUGAAGUGAUGCAACACUGGAGCCGCUGGGAACUAAUUUGUAUGCGAAAGUAUAUUGAUUAGUUUUGGAGUACUCGUGGUCG
Summary of the method: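 Six replicate transformations of E. coli BL21(DE3) with a pET-22b(+) library were grown overnight at 37°C or 30°C. The library randomised all eight P1ex-region intron nucleotides, the intron lying in the knt kanamycin-resistance gene, and plates were LB agar with or without 25 μg/mL kanamycin plus 100 μg/mL carbenicillin, 50 μM IPTG and 0.2% rhamnose. Pooled colonies were amplicon-sequenced on an Illumina HiSeq 2500, and fitness is the DiMSum error-weighted combination of wild-type-normalised replicate fold changes, kanamycin versus none.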

| Sequence | self-splicing fitness (ln) (30 °C) | self-splicing fitness (ln) (37 °C) |
| --- | --- | --- |
| UCGCAGCAAUAUUACGACCG | -0.544 ± 0.11 | -0.235 ± 0.15 |
| ACUUAGCAAUAUUACGGGAA | -1.99 ± 0.2 | -1.65 ± 0.16 |
| AGUCAGCAAUAUUACGUUGC |  | -2.83 ± 0.3 |
| GUGGAGCAAUAUUACGUGAC |  | 1.74 ± 0.35 |
| CGUAAGCAAUAUUACGAAGU | -3.81 ± 0.18 | -2.51 ± 0.17 |
| UUAGAGCAAUAUUACGAAUG | -2.2 ± 0.14 | -2.55 ± 0.26 |
| GCGGAGCAAUAUUACGCAUA | -2.55 ± 0.49 | -2.74 ± 0.36 |
| AGAAAGCAAUAUUACGGAUC | -1.53 ± 0.13 | -0.656 ± 0.17 |
| UCCUAGCAAUAUUACGGGAG | -2.27 ± 0.25 | -2.37 ± 0.35 |
| ACUGAGCAAUAUUACGAGCU |  | -1.02 ± 0.32 |
| ACCAAGCAAUAUUACGGGGC | -3.74 ± 0.18 | -2.1 ± 0.14 |
| UCAAAGCAAUAUUACGUAAA | -1.73 ± 0.13 | -1.94 ± 0.21 |
| ACCUAGCAAUAUUACGCUAG | -3.86 ± 0.25 | -2.79 ± 0.28 |
| GACUAGCAAUAUUACGCCAU | -2.02 ± 0.12 | -1.32 ± 0.14 |
| AACUAGCAAUAUUACGAGCA | -1.68 ± 0.12 | -0.209 ± 0.11 |
| CUAGAGCAAUAUUACGCCGC | -2.52 ± 0.37 |  |
| UUAGAGCAAUAUUACGGAGG | -2.3 ± 0.13 | -1.84 ± 0.18 |
| CGUGAGCAAUAUUACGCUCU | -1.76 ± 0.36 |  |
| UGACAGCAAUAUUACGACGU | -1.48 ± 0.099 | -0.473 ± 0.13 |
| UGUAAGCAAUAUUACGGAGA | -2.88 ± 0.32 | -1.97 ± 0.42 |
| UCGAAGCAAUAUUACGCAAA |  | -3.16 ± 0.4 |
| UGCCAGCAAUAUUACGGCCA | -0.44 ± 0.076 | -0.0136 ± 0.086 |
| UACGAGCAAUAUUACGGAUU | -2.38 ± 0.33 |  |
| GCGCAGCAAUAUUACGGCUU | 0.000989 ± 0.11 | 0.531 ± 0.15 |
| CAGAAGCAAUAUUACGAGGA | -4.09 ± 0.4 | -2.01 ± 0.2 |
| CUGUAGCAAUAUUACGACAA | -0.568 ± 0.11 | 0.0313 ± 0.11 |

| Sequence | self-splicing fitness (ln) (30 °C) | self-splicing fitness (ln) (37 °C) |
| --- | --- | --- |
| CGUAAGCAAUAUUACGGGGU | -3.79 ± 0.18 | -3.36 ± 0.25 |
| CUGGAGCAAUAUUACGGACA | -3.7 ± 0.43 | -2.45 ± 0.46 |
| UUGGAGCAAUAUUACGACUU | -1.94 ± 0.19 | -0.866 ± 0.28 |
| UGCUAGCAAUAUUACGGUAU | -2.28 ± 0.1 | -2.43 ± 0.14 |
| GAAGAGCAAUAUUACGGUAA | -2.16 ± 0.29 | -1.01 ± 0.24 |
| ACACAGCAAUAUUACGUGCG | -0.45 ± 0.044 | -0.606 ± 0.063 |
| AUUGAGCAAUAUUACGCGCA | -1.48 ± 0.16 | -1.08 ± 0.2 |
| UUGAAGCAAUAUUACGGAGU | -2.51 ± 0.17 | -1.83 ± 0.18 |
| GGUUAGCAAUAUUACGUAGC | -2.18 ± 0.16 | -1.97 ± 0.17 |
| ACUGAGCAAUAUUACGGUGA | -2.02 ± 0.13 | -3.65 ± 0.24 |
| UAUUAGCAAUAUUACGGAGU | -3.84 ± 0.43 | -2.01 ± 0.29 |
| ACUGAGCAAUAUUACGUACA | -1.96 ± 0.24 | -0.524 ± 0.17 |
| CAUCAGCAAUAUUACGUCCC | -2.53 ± 0.31 | -1.39 ± 0.27 |
| GCGGAGCAAUAUUACGACCA |  | -1.68 ± 0.41 |
| ACGUAGCAAUAUUACGCUGC | -3.09 ± 0.34 | -1.44 ± 0.38 |
| AGCCAGCAAUAUUACGGUCA | -0.0408 ± 0.09 | 0.4 ± 0.093 |
| UGCUAGCAAUAUUACGUGAU | -1.88 ± 0.13 | -1.39 ± 0.16 |
| CACAAGCAAUAUUACGUUUU | -4.18 ± 0.15 | -3.45 ± 0.22 |
| GGGGAGCAAUAUUACGACCG | -1.02 ± 0.41 |  |
| UGGUAGCAAUAUUACGGGUU | -4.12 ± 0.18 | -3.49 ± 0.24 |
| GACUAGCAAUAUUACGAACG | -1.34 ± 0.11 | -0.144 ± 0.15 |
| CUGAAGCAAUAUUACGUGUU | -3.7 ± 0.14 | -2.13 ± 0.17 |
| GUAAAGCAAUAUUACGAUCA | -0.396 ± 0.11 | -0.197 ± 0.11 |
| AAAUAGCAAUAUUACGCGCU | -0.381 ± 0.15 | -0.606 ± 0.19 |
| AAUUAGCAAUAUUACGGCAU | 0.0829 ± 0.11 | 0.351 ± 0.11 |
